Reference: US20240124590A1 (ULTRAHUMAN EIGHT, published 2024)

T1: cynomolgus monkey PD1 human Fc tagged recombinant protein (cynomolgus monkey, UniProt Q15116 25-170 (human entry), limits assumed)
T1 construct: also called cyPD1-Fc; cyPD-1-Fc; not shown: human Fc tag
T1 chain: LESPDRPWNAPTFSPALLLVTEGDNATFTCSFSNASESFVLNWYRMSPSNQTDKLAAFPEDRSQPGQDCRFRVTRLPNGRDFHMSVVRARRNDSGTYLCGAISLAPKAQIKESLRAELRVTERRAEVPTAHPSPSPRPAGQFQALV

T2: cyno PD1 expressed on CHO-K1 cells (cynomolgus monkey, UniProt Q15116 25-288 (human entry))
T2 construct: also called cyno PD1+ CHO cells
T2 chain: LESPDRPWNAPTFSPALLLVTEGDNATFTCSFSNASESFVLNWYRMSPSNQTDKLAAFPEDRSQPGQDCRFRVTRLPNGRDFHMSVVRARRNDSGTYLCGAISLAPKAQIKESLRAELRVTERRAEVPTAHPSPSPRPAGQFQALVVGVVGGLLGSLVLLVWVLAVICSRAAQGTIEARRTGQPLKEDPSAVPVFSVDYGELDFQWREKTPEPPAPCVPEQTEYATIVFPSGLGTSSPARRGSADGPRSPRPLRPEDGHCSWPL

T3: human ULBP2 (UL16 binding protein 2) on transfected HEK293 cells (human, UniProt Q9BZM5 26-217)
T3 sequence: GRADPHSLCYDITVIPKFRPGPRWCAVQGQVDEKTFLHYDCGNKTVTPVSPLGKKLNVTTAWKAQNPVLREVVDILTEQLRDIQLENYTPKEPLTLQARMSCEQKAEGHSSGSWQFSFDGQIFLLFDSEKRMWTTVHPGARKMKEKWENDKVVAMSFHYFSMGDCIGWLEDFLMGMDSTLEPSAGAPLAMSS

T4: cynomolgus monkey PD1 His tag (monomeric) (cynomolgus monkey, UniProt Q15116 25-170 (human entry), limits assumed)
T4 construct: Soluble monomeric analyte; whole entry named; also called monomeric cyno PD1; not shown: His tag
T4 chain: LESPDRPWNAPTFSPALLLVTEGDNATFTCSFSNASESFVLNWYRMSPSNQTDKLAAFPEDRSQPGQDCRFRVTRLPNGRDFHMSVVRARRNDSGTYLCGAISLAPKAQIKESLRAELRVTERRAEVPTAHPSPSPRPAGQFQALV


Experiments:
[1] = biological target: T1, cynomolgus monkey PD1 human Fc tagged …; assay: direct ELISA, Fab on coated PD1-Fc
Method: (§1) Binding and cross-reactivity of the lead panel to the recombinant proteins was initially assessed by binding ELISA. The human PD1 human Fc tagged recombinant protein and the cynomolgus monkey PD1 human Fc tagged recombinant protein were coated to the surface of MaxiSorp™ flat-bottom 96 well plate at 1 μg/ml. […] The Fabs were detected using mouse anti-c-myc antibody followed by donkey anti-mouse IgG conjugated to horseradish peroxidase. The IgGs were detected using the mouse anti-human IgG conjugated to horseradish peroxidase. Binding signals were visualized with 3,3′,5,5′-Tetrannethylbenzidine Substrate Solution (TMB) and the absorbance measured at 450 nm.
(§2) The top 12 clones were also expressed as Fab protein from E. coli expression, purified to homogeneity, quantified, and applied in direct ELISA binding analyses on human PD1-Fc and cyno PD1-Fc (FIGS. 2A&B, Table 5).

[2] = biological target: T5, human PD1 human Fc tagged recombinant protein (human, UniProt Q15116 25-170, limits assumed); assay: direct ELISA, Fab on coated PD1-Fc
T5 construct: also called huPD1-Fc; huPD-1-Fc; not shown: human Fc tag
T5 sequence (Q15116 25-170 limits assumed): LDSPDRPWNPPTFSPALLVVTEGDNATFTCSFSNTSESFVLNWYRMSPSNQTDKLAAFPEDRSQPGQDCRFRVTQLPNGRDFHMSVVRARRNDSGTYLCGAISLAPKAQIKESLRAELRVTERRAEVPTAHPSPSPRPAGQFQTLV
Method: as §1, §2

[3] = biological target: T2, cyno PD1 expressed on CHO-K1 cells; assay: flow cytometry, PD1 CHO-K1 cells
Method: (§3) Purified IgGs were tested in FACs for binding to human and cyno PD1 expressed on CHO-K1 stable cell lines and CHO-K1 wild-type cells. […] Binding of IgGs was detected with a mouse anti-human IgG conjugated to FITC. Results were analyzed by examining the Mean Fluorescence Intensity (MFI) of 10000 cells per sample in the BL-1 channel detector of a flow cytometer (Attune™ NxT Acoustic Focusing Cytometer, Invitrogen/ThermoFisher Scientific).
(§4) Antibodies to PD1 were analysed for concentration-dependent binding at the cell surface via flow cytometry. Initial analyses were performed on CHO cells stably-transfected with human or cyno PD1.

[4] = biological target: T6, human PD1 expressed on cells (human, UniProt Q15116 25-288); assay: flow cytometry, PD1 CHO-K1 cells
T6 construct: also called human PD1+ CHO cells; PD1-transfected HEK293 cells
T6 sequence (Q15116 25-288 limits assumed): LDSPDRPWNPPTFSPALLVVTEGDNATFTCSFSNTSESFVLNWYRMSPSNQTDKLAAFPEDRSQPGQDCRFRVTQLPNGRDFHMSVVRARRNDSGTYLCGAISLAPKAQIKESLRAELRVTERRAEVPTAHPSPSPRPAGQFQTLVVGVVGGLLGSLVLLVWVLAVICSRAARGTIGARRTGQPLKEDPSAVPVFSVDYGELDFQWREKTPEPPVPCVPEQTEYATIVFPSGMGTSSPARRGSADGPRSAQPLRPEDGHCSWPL
Method: as §3, §4

[5] = biological target: T7, biotinylated human PD1-His/AviTag (human, UniProt Q15116 25-170, limits assumed, biotinylated); assay: Alphascreen competition vs IgG1-Mab005 (humanized)
T7 construct: Alphascreen antigen; whole entry named; also called biotinylated monomeric human PD1; not shown: His/AviTag
T7 sequence (Q15116 25-170 limits assumed): as the sequence (Q15116 25-170 limits assumed) above
Method: The AlphaScreen assay (Perkin Elmer) was performed in a 25 μl final volume in 384-well white microtiter plates (Greiner). The reaction buffer contained 1×PBS pH 7.3 (Oxoid, Cat. nr. BRO014G) and 0.05% (v/v) Tween® 20 (Sigma, Cat. nr. P9416). Purified IgG samples were titrated in three fold serial dilutions starting at 500 nM final concentration and incubated with biotinylated human PD1-His/AviTag at 0.6 nM final concentration for 20 minutes at room temperature. […] Followed by addition of the Streptavidin Donor beads at 20 μg/ml (final concentration) and incubation for 30 minutes at room temperature. The emission of light was measured in the EnVision multilabel plate reader (Perkin Elmer) and analysed using the EnVision manager software. Values were reported as Counts Per Second (CPS) and corrected for crosstalk.

[6] = biological target: T3, human ULBP2 (UL16 binding protein 2) on …; assay: cell microarray re-array, transfected HEK293
Method: (§5) Antibody binding was detected using AF647 fluorescent secondary anti-human IgG1 antibody. Primary hits (duplicate spots) were identified by analysing fluorescence (AF647 and ZsGreen1) on ImageQuant. Vectors encoding all hits were sequenced to confirm their correct identities. […] Slides were analysed as above. Flow cytometry confirmation screen: Expression vectors encoding ZsGreen1 only, or ZsGreen1 and PD1, FZDS, KDR or ULBP2, were transfected into human HEK293 cells. Each live transfectant was incubated with […] of each of the test antibodies and the Isotype control antibody. Cells were washed, and incubated with the same AF647 anti-human IgG Fc detection antibody as used in the cell microarray screens. Cells were again washed, and analysed by flow cytometry using an Accuri flow cytometer (BD). A 7AAD live/dead dye was used to exclude dead cells, and ZsGreen1-positive cells (i.e. transfected cells) were selected for analyses.

[7] = biological target: T8, human KDR (VEGFR2) on cells (human, UniProt P35968 20-1356); assay: cell microarray re-array, transfected HEK293
T8 construct: Transfected HEK293 cells (arrays, flow cytometry) and human VEGFR2 reporter cells
T8 sequence (P35968 20-1356 limits assumed): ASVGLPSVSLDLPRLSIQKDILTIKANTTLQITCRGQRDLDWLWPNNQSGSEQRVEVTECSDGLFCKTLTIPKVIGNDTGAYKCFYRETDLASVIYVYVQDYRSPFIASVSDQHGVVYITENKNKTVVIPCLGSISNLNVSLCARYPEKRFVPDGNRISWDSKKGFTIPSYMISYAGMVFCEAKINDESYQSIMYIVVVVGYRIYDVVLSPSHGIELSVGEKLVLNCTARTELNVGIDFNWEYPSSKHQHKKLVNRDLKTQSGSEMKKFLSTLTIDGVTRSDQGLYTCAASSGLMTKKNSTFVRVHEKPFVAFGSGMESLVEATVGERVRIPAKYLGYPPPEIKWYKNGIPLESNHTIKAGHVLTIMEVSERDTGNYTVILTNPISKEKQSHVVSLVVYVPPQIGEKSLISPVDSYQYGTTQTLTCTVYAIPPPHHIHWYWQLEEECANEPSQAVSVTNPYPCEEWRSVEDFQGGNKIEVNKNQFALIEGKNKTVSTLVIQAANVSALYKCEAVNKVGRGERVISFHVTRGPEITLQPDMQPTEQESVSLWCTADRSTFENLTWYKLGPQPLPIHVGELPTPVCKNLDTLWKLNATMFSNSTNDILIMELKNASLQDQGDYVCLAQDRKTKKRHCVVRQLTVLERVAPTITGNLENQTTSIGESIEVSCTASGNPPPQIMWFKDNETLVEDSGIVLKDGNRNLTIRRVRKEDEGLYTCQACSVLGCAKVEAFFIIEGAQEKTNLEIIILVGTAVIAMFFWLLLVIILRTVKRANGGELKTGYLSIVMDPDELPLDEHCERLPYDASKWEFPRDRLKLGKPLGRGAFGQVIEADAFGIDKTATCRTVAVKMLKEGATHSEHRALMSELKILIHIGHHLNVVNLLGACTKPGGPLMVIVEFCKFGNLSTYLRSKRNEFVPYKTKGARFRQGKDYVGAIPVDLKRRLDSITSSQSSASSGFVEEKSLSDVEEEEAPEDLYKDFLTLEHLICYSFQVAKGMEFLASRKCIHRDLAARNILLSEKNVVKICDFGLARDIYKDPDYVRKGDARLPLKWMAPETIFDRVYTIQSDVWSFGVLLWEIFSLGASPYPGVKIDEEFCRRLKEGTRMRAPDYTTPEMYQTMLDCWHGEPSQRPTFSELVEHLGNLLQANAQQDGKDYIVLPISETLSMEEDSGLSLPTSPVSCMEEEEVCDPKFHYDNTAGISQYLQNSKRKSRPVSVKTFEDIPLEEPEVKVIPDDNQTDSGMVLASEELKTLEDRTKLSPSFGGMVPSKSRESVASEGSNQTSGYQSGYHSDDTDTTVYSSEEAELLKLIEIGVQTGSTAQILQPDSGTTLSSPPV
Method: as §5

[8] = biological target: T9, human FZD5 (frizzled class receptor 5) on transfected HEK293 cells (human, UniProt Q13467 27-585); assay: cell microarray re-array, transfected HEK293
T9 construct: also called FZDS; FZ5
T9 sequence (Q13467 27-585 limits assumed): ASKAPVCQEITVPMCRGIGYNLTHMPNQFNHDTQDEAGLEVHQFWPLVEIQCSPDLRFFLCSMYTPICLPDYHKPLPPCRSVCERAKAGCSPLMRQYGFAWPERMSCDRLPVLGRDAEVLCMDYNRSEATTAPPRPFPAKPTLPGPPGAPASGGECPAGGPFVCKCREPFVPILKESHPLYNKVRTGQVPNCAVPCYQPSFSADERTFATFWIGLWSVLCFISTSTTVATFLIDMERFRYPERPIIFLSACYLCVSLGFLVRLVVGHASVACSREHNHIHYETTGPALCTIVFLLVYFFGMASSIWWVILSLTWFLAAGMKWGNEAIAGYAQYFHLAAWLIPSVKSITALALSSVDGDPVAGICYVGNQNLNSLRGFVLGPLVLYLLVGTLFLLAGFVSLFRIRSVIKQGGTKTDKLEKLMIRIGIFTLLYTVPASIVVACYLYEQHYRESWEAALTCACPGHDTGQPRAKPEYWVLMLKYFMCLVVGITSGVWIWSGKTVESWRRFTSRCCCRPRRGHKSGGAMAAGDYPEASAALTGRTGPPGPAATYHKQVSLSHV
Method: as §5

[9] = biological target: T1, cynomolgus monkey PD1 human Fc tagged …; assay: direct ELISA, IgG1null on coated PD1-Fc
Method: as §1
(§6) The purified IgGs described above were then tested for binding to human and cyno PD1-Fc in direct titration ELISA format. […] As the ELISA EC50 values for directly binding IgGs are strongly influenced by avidity, rather than true 1:1 binding affinity, we then proceeded to perform higher-sensitivity, solution-phase epitope competition and Biacore binding affinity determinations, as outlined below.

[10] = biological target: T5, human PD1 human Fc tagged recombinant …; assay: direct ELISA, IgG1null on coated PD1-Fc
Method: as §1, §6

[11] = biological target: T6, human PD1 expressed on cells; assay: cell-based or functional assay
[12] = biological target: T4, cynomolgus monkey PD1 His tag …; assay: SPR (Biacore), IgG captured, monomeric PD1-His analyte
Method: (§7) Affinity (KD) of purified IgGs was determined via SPR with antigen in-solution on a Biacore 3000 (GE). A mouse anti-human antibody (CH1 specific) was immobilized on a CM5 Sensor Chip to a level of 2000 RU in acetate buffer at pH 4.5 using amine coupling following the Wizard instructions for two channels. One channel was used for background signal correction. The standard running buffer HBS-EP pH 7.4 was used. Regeneration was performed with a single injection of 10 μl of 10 mM Glycine at pH 1.5 at 20 μl/minute. IgG samples were injected for 2 minutes at 50 nM at 30 μl/min followed by and off-rate of 60 seconds. […] The obtained sensorgrams were analysed using the Biacore 3000 evaluation (BIAevaluation) software. The KD was calculated by simultaneous fitting of the association and dissociation phases to a 1:1 Langmuir binding model.
(§8) Biacore analyses of binding affinity was performed for all IgGs to solution-phase, monomeric human and cyno PD1 proteins.

[13] = biological target: T10, human PD1 His tagged (monomeric) (human, UniProt Q15116 25-170, limits assumed); assay: as above
T10 construct: Soluble monomeric analyte; whole entry named; also called monomeric human PD1; not shown: His tag
T10 sequence (Q15116 25-170 limits assumed): as the sequence (Q15116 25-170 limits assumed) above
Method: as §7, §8

[14] = biological target: T1, cynomolgus monkey PD1 human Fc tagged …; assay: direct ELISA, IgG1null on coated PD1-Fc
Method: as §1, §6

[15] = biological target: T5, human PD1 human Fc tagged recombinant …; assay: direct ELISA, IgG1null on coated PD1-Fc; remark: listed apart in the source
Method: as §1, §6

Binder | EC50 [1] [nM] | EC50 [2] [nM] | EC50 [3] [nM] | EC50 [4] [nM] | IC50 [5] [nM] | binding result [6] | binding result [7] | binding result [8] | EC50 [9] [nM] | EC50 [10] [nM] | EC50 (ng/ml), IgG1null blockade of human PD1/PD-L1 [11] [ng/mL] | Kd [12] [nM] | koff [12] [s⁻¹] | kon [12] [M⁻¹ s⁻¹] | Kd [13] [nM] | koff [13] [s⁻¹] | kon [13] [M⁻¹ s⁻¹] | EC50 [14] [nM] | EC50 [15] [nM]
Fab06D02 (Fab, V domains shown, Human Fab from E. coli, His/c-myc tags) VH: EVQLVESGGGLVQPGGSLRLSCAASGFTFSSYLMSWVRQAPGKGLEWVATISGGGSETYYVDSVKGRFTISRDNAKNSLYLQMNSLRAEDTAVYYCARQLYGFDYWGQGTLVTVSS VL: not shown | 1.01 | 0.743 |  |  |  |  |  |  |  |  |  |  |  |  |  |  |  |  | 
Fab-Mab005 (Fab, V domains shown, Purified monomeric human Fab from E. coli, His tag, detected by c-myc; also called Mab005 (humanized) Fab) VH: EVQLVESGGGLVQPGGSLRLSCAASGFTFSSYMMSWVRQAPGKGLEWVATISGGGANTYYPDSVKGRFTISRDNAKNSLYLQMNSLRAEDTAVYYCARQLYYFDYWGQGTTVTVSS VL: DIQMTQSPSSLSASVGDRVTITCLASQTIGTWLTWYQQKPGKAPKLLIYTATSLADGVPSRFSGSGSGTDFTLTISSLQPEDFATYYCQQVYSIPWTFGGGTKVEIK |  | 1.25 |  |  |  |  |  |  |  |  |  |  |  |  |  |  |  |  | 
Fab12H04 (Fab, V domains shown, Human Fab from E. coli, His/c-myc tags) VH: EVQLVESGGGLVQPGGSLRLSCAASGFTFSSYLMSWVRQAPGKGLEWVATISGGGAEKYYVDSVKGRFTISRDNAKNSLYLQMNSLRAEDTAVYYCARQLYGFDYWGQGTLVTVSS VL: not shown | 1.4 | 0.708 |  |  |  |  |  |  |  |  |  |  |  |  |  |  |  |  | 
IgG1-11 (antibody, V domains shown, Designer; human IgG1null + Ckappa; also called Antibody IgG1-11) VH: EVQLVESGGGLVQPGGSLRLSCAASGFTFSSYLMSWVRQAPGKGLEWVATISGGGSEKYYVDSVKGRFTISRDNAKNSLYLQMNSLRAEDTAVYYCARQLYFFDYWGQGTLVTVSS VL: not shown |  |  | 0.861 | 0.978 | 1.41 | no binding (tested: 5 µg/ml) | no binding (tested: 5 µg/ml) | no binding (tested: 5 µg/ml) | 0.0498 | 0.0492 | 172 | 7.1 | 0.00073 | 100000 | 3.01 | 0.0004 | 130000 |  | 

Results, then the binder that gave them:

EC50 [1] [nM] | EC50 [2] [nM] | EC50 [3] [nM] | EC50 [4] [nM] | IC50 [5] [nM] | binding result [6] | binding result [7] | binding result [8] | EC50 [9] [nM] | EC50 [10] [nM] | EC50 (ng/ml), IgG1null blockade of human PD1/PD-L1 [11] [ng/mL] | Kd [12] [nM] | koff [12] [s⁻¹] | kon [12] [M⁻¹ s⁻¹] | Kd [13] [nM] | koff [13] [s⁻¹] | kon [13] [M⁻¹ s⁻¹] | EC50 [14] [nM] | EC50 [15] [nM] | Binder
 |  | 1.33 | 1.87 | 3 | no binding (tested: 5 µg/ml) | no binding (tested: 5 µg/ml) | no binding (tested: 5 µg/ml) | 0.0959 | 0.125 | 212 | 6.9 | 0.00097 | 140000 | 2.57 | 0.00046 | 180000 |  |  | IgG1-14 (antibody, V domains shown, Designer; human IgG1null + Ckappa; also called Antibody IgG1-14) VH: EVQLVESGGGLVQPGGSLRLSCAASGFTFSSYLMSWVRQAPGKGLEWVATISGGGSEKYYVDSVKGRFTISRDNAKNSLYLQMNSLRAEDTAVYYCARQLYAFDYWGQGTLVTVSS VL: not shown
 |  | 2.17 | 1.95 | 4.01 |  |  |  |  |  | 188 | 4.7 | 0.00064 | 140000 | 1.6 | 0.00032 | 200000 | 0.12 | 0.112 | IgG1-12H04 (antibody, V domains shown, Library-derived; human IgG1null + Ckappa) VH: EVQLVESGGGLVQPGGSLRLSCAASGFTFSSYLMSWVRQAPGKGLEWVATISGGGAEKYYVDSVKGRFTISRDNAKNSLYLQMNSLRAEDTAVYYCARQLYGFDYWGQGTLVTVSS VL: not shown
